This note sets out measurements from paper doi:10.1101/725622 (bioRxiv, 2019).

The target of this test is V2R-bound βarr1 in HEK-293 cells (V2R: Homo sapiens; βarr1: Rattus …, UniProt P30518;P29066). As to the kind of experiment: co-IP.

B1: Ib30 (HA-tagged intrabody version of Fab30) (scFv, V domains shown)
VH: EVQLVESGGGLVQPGGSLRLSCAASGFNVYSSSIHWVRQAPGKGLEWVASISSYYGYTYYADSVKGRFTISADTSKNTAYLQMNSLRAEDTAVYYCARSRQFWYSGLDYWGQGTLVTVSS
VL: DIQMTQSPSSLSASVGDRVTITCRASQSVSSAVAWYQQKPGKAPKLLIYSASSLYSGVPSRFSGSRSGTDFTLTISSLQPEDFATYYCQQYKYVPVTFGQGTKVEIK
As to B1, the binding result is listed as “binds”.
